Where a chain is given by its changes, count along the chain named.
Columns and labels:
human BMP-6 [1] = molecular target: T1, human BMP-6 (human, UniProt P22004 382-513, limits assumed); assay: cell-based or functional assay
T1 sequence: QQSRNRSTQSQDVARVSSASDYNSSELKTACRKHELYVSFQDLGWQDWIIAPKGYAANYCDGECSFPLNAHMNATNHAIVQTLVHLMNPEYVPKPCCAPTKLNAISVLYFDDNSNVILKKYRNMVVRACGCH

human BMP-6 [2] = molecular target: T1, human BMP-6; assay: cell-based or functional assay; remark: listed apart in the source
human BMP-6 [3] = molecular target: T1, human BMP-6; assay: SPR (BIAcore), ratio of KD against MAB507, 37 C
human BMP-5 = molecular target: T2, human BMP-5 (human, UniProt P22003 317-454, limits assumed); assay: SPR (BIAcore), BMP immobilised on CM4 chip, antibody injected, 37 C
T2 sequence (looked up): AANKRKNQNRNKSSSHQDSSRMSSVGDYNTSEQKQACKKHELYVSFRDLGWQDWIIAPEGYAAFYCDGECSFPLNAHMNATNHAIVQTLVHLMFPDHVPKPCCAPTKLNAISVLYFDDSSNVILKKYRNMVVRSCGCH

human BMP-7 = molecular target: T3, human BMP-7 (human, UniProt P18075 293-431); assay: as above
T3 sequence (looked up): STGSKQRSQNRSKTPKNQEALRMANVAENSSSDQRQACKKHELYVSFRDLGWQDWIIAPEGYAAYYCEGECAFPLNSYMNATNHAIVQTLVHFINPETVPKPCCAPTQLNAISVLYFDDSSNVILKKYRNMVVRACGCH

human BMP-6 [4] = molecular target: T1, human BMP-6; assay: SPR (BIAcore), BMP-6 immobilised on CM4 chip, antibody injected, 37 C
rat BMP-6 = molecular target: T4, rat BMP-6 (rat, UniProt Q04906 368-506, limits assumed); assay: SPR (BIAcore), Fab on rat BMP-6, 37 C
T4 sequence (looked up): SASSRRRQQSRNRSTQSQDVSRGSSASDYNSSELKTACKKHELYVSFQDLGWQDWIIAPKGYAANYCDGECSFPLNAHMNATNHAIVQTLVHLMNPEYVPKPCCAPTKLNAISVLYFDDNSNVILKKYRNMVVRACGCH

human BMP-6 [5] = molecular target: T1, human BMP-6; assay: SPR (BIAcore), Fab on human BMP-6, 37 C
human BMP-6 [6] = molecular target: T1, human BMP-6; assay: SPR (BIAcore), Fab on human BMP-6, 37 C; remark: listed apart in the source
Cynomolgus monkey BMP-6 = molecular target: T5, Cynomolgus monkey BMP-6 (cynomolgus monkey); assay: SPR (BIAcore), Fab on cynomolgus monkey BMP-6, 37 C
T5 construct: also called Cyno Monkey BMP-6

B1: Antibody I (antibody, human IgG4 S228P, kappa, F234A L235A, V domains shown)
VH: QVQLVQSGAEVKKPGSSVKVSCKASGYTFTSYAMHWVRQAPGQGLEWMGYINPYNDGTKYNENFKGRVTITADESTSTAYMELSSLRSEDTAVYYCARRPFGNAMDIWGQGTLVTVSS
VL: DIQMTQSPSSLSASVGDRVTITCRSSENIYRNLAWYQQKPGKAPKLLIYAATNLADGVPSRFSGSGSGTDFTLTISSLQPEDFATYYCQGIWGTPLTFGGGTKVEIKR
notes: Engineered antibody with human frameworks and constant regions
B1 was tested, and the “fold potency against MAB507 in inhibition of BMP-6-induced hepcidin promoter luciferase activity” value (human BMP-6 [1]) was roughly 22 fold, the “Geometric Mean IC50 (nM), BMP-6 induced Hep_Luc Assay (hepcidin promoter luciferase, HepProm_Luc cells)” value (human BMP-6 [2]) was 0.99 nM and the “fold higher affinity than MAB507” value (human BMP-6 [3]) was 50 fold. The binding result (human BMP-5) was “no binding (tested: up to 1000 nM antibody)”, the binding result (human BMP-7) was “no binding (tested: up to 1000 nM antibody)” and the Kd (human BMP-6 [4]) was 0.02 nM. The koff (human BMP-6 [4]) was 4.05e-05 s⁻¹ and the kon (human BMP-6 [4]) was 1.73e+06 M⁻¹ s⁻¹.

B2: Antibody II (antibody, human IgG4 S228P, kappa, F234A L235A, V domains shown)
VH: B1 VH with D56R
VL: B1 VL
With B2 the “fold potency against MAB507 in inhibition of BMP-6-induced hepcidin promoter luciferase activity” value (human BMP-6 [1]) was roughly 22 fold and the “Geometric Mean IC50 (nM), BMP-6 induced Hep_Luc Assay (hepcidin promoter luciferase, HepProm_Luc cells)” value (human BMP-6 [2]) was 0.94 nM.

B3: Fab of Antibody I (Fab, V domains shown)
VH: B1 VH
VL: DIQMTQSPSSLSASVGDRVTITCRSSENIYRNLAWYQQKPGKAPKLLIYAATNLADGVPSRFSGSGSGTDFTLTISSLQPEDFATYYCQGIWGTPLTFGGGTKVEIK
notes: These are the variable regions of Antibody I; also called Antibody I Fab
Binder B3 has a Kd (rat BMP-6) of 0.088 nM, a koff (rat BMP-6) of 0.0003 s⁻¹ and a kon (rat BMP-6) of 4.1e+06 M⁻¹ s⁻¹. For the same binder, the Kd (human BMP-6 [5]) was 0.09 nM, the koff (human BMP-6 [5]) was 0.00023 s⁻¹ and the kon (human BMP-6 [5]) was 2.5e+06 M⁻¹ s⁻¹. The Kd (human BMP-6 [6]) was 0.0845 nM, the koff (human BMP-6 [6]) was 0.00028 s⁻¹ and the kon (human BMP-6 [6]) was 3.7e+06 M⁻¹ s⁻¹. The Kd (Cynomolgus monkey BMP-6) was 0.0796 nM, the koff (Cynomolgus monkey BMP-6) was 0.00028 s⁻¹ and the kon (Cynomolgus monkey BMP-6) was 4.1e+06 M⁻¹ s⁻¹.

B4: Fab of Antibody II (Fab, V domains shown)
VH: B1 VH with D56R
VL: B3 VL
notes: These are the variable regions of Antibody II; also called Antibody II Fab
B4 showed a Kd (human BMP-6 [5]) of 0.08 nM, a koff (human BMP-6 [5]) of 0.00025 s⁻¹ and a kon (human BMP-6 [5]) of 3e+06 M⁻¹ s⁻¹.

— patent US20140309404A1 (Eli Lilly, published 2014)
